± gives the uncertainty stated by the source.
B1: Zinc finger homeobox protein 4, residues 2086 to 2141; numbered along this chain, Q86UP3 (parent)
chain: RPRTRITDDQLKILRAYFDINNSPSEEQIQEMAEKSGLSQKVIKHWFRNTLFKERQ

Variants of: B1
Assay: abundance fitness (aPCA) (normalised: wild type 0, dead -1); higher = more abundant; growth selection in yeast, the domain comes from the species named
Details: Homo sapiens

Variant | abundance fitness
RPRTRITDDQLKIKRAYFDINNSPSEEQIQEMAEKSGLSQKVIKHWFRNTLFKERQ [L14K] | -1.16 ± 0.2
RPRTRITDDQLKIRRAYFDINNSPSEEQIQEMAEKSGLSQKVIKHWFRNTLFKERQ [L14R] | -0.949 ± 0.096
RPRTRITDDQLKIDRAYFDINNSPSEEQIQEMAEKSGLSQKVIKHWFRNTLFKERQ [L14D] | -1.19 ± 0.46
RPRTRITDDQLKIWRAYFDINNSPSEEQIQEMAEKSGLSQKVIKHWFRNTLFKERQ [L14W] | -0.777 ± 0.14
RPRTRITDDQLKITRAYFDINNSPSEEQIQEMAEKSGLSQKVIKHWFRNTLFKERQ [L14T] | -1.01 ± 0.12
RPRTRITDDQLKIYRAYFDINNSPSEEQIQEMAEKSGLSQKVIKHWFRNTLFKERQ [L14Y] | -1.22 ± 0.33
RPRTRITDDQLKINRAYFDINNSPSEEQIQEMAEKSGLSQKVIKHWFRNTLFKERQ [L14N] | -1.18 ± 0.31
RPRTRITDDQLKIHRAYFDINNSPSEEQIQEMAEKSGLSQKVIKHWFRNTLFKERQ [L14H] | -1 ± 0.23
RPRTRITDDQLKIIRAYFDINNSPSEEQIQEMAEKSGLSQKVIKHWFRNTLFKERQ [L14I] | -0.439 ± 0.42
RPRTRITDDQLKIQRAYFDINNSPSEEQIQEMAEKSGLSQKVIKHWFRNTLFKERQ [L14Q] | -0.866 ± 0.13
RPRTRITDDQLKIERAYFDINNSPSEEQIQEMAEKSGLSQKVIKHWFRNTLFKERQ [L14E] | -1 ± 0.14
RPRTRITDDQLKICRAYFDINNSPSEEQIQEMAEKSGLSQKVIKHWFRNTLFKERQ [L14C] | -0.671 ± 0.17
RPRTRITDDQLKIFRAYFDINNSPSEEQIQEMAEKSGLSQKVIKHWFRNTLFKERQ [L14F] | -0.304 ± 0.28
RPRTRITDDQLKISRAYFDINNSPSEEQIQEMAEKSGLSQKVIKHWFRNTLFKERQ [L14S] | -1.02 ± 0.14
RPRTRITDDQLKIVRAYFDINNSPSEEQIQEMAEKSGLSQKVIKHWFRNTLFKERQ [L14V] | -0.273 ± 0.083
RPRTRITDDQLKIARAYFDINNSPSEEQIQEMAEKSGLSQKVIKHWFRNTLFKERQ [L14A] | -0.865 ± 0.12
RPRTRITDDQLKHLRAYFDINNSPSEEQIQEMAEKSGLSQKVIKHWFRNTLFKERQ [I13H] | -0.333 ± 0.14
RPRTRITDDQLKSLRAYFDINNSPSEEQIQEMAEKSGLSQKVIKHWFRNTLFKERQ [I13S] | -0.218 ± 0.088
RPRTRITDDQLKPLRAYFDINNSPSEEQIQEMAEKSGLSQKVIKHWFRNTLFKERQ [I13P] | -0.612 ± 0.14
RPRTRITDDQLKMLRAYFDINNSPSEEQIQEMAEKSGLSQKVIKHWFRNTLFKERQ [I13M] | -0.057 ± 0.084
RPRTRITDDQLKFLRAYFDINNSPSEEQIQEMAEKSGLSQKVIKHWFRNTLFKERQ [I13F] | -0.13 ± 0.19
RPRTRITDDQLKVLRAYFDINNSPSEEQIQEMAEKSGLSQKVIKHWFRNTLFKERQ [I13V] | -0.027 ± 0.076
RPRTRITDDQLKDLRAYFDINNSPSEEQIQEMAEKSGLSQKVIKHWFRNTLFKERQ [I13D] | -0.289 ± 0.15
RPRTRITDDQLKWLRAYFDINNSPSEEQIQEMAEKSGLSQKVIKHWFRNTLFKERQ [I13W] | -0.136 ± 0.082

Variant | abundance fitness
RPRTRITDDQLKRLRAYFDINNSPSEEQIQEMAEKSGLSQKVIKHWFRNTLFKERQ [I13R] | -0.223 ± 0.074
RPRTRITDDQLKQLRAYFDINNSPSEEQIQEMAEKSGLSQKVIKHWFRNTLFKERQ [I13Q] | 0.026 ± 0.11
RPRTRITDDQLKTLRAYFDINNSPSEEQIQEMAEKSGLSQKVIKHWFRNTLFKERQ [I13T] | 0.043 ± 0.11
RPRTRITDDQLKGLRAYFDINNSPSEEQIQEMAEKSGLSQKVIKHWFRNTLFKERQ [I13G] | -0.347 ± 0.076
RPRTRITDDQLKALRAYFDINNSPSEEQIQEMAEKSGLSQKVIKHWFRNTLFKERQ [I13A] | -0.372 ± 0.084
RPRTRITDDQLKLLRAYFDINNSPSEEQIQEMAEKSGLSQKVIKHWFRNTLFKERQ [I13L] | -0.08 ± 0.072
RPRTRITDDQLKELRAYFDINNSPSEEQIQEMAEKSGLSQKVIKHWFRNTLFKERQ [I13E] | -0.17 ± 0.12
RPRTRITDDQLKYLRAYFDINNSPSEEQIQEMAEKSGLSQKVIKHWFRNTLFKERQ [I13Y] | -0.027 ± 0.21
RPRTRITDDQLKKLRAYFDINNSPSEEQIQEMAEKSGLSQKVIKHWFRNTLFKERQ [I13K] | -0.062 ± 0.12
RPRTRITDDYLKILRAYFDINNSPSEEQIQEMAEKSGLSQKVIKHWFRNTLFKERQ [Q10Y] | -0.498 ± 0.13
RPRTRITDDCLKILRAYFDINNSPSEEQIQEMAEKSGLSQKVIKHWFRNTLFKERQ [Q10C] | -0.277 ± 0.11
RPRTRITDDGLKILRAYFDINNSPSEEQIQEMAEKSGLSQKVIKHWFRNTLFKERQ [Q10G] | -0.514 ± 0.068
RPRTRITDDELKILRAYFDINNSPSEEQIQEMAEKSGLSQKVIKHWFRNTLFKERQ [Q10E] | -0.383 ± 0.092
RPRTRITDDDLKILRAYFDINNSPSEEQIQEMAEKSGLSQKVIKHWFRNTLFKERQ [Q10D] | -0.125 ± 0.12
RPRTRITDDILKILRAYFDINNSPSEEQIQEMAEKSGLSQKVIKHWFRNTLFKERQ [Q10I] | -0.462 ± 0.12
RPRTRITDDNLKILRAYFDINNSPSEEQIQEMAEKSGLSQKVIKHWFRNTLFKERQ [Q10N] | -0.099 ± 0.19
RPRTRITDDMLKILRAYFDINNSPSEEQIQEMAEKSGLSQKVIKHWFRNTLFKERQ [Q10M] | -0.323 ± 0.11
RPRTRITDDTLKILRAYFDINNSPSEEQIQEMAEKSGLSQKVIKHWFRNTLFKERQ [Q10T] | -0.245 ± 0.092
RPRTRITDDPLKILRAYFDINNSPSEEQIQEMAEKSGLSQKVIKHWFRNTLFKERQ [Q10P] | -0.819 ± 0.13
RPRTRITDDWLKILRAYFDINNSPSEEQIQEMAEKSGLSQKVIKHWFRNTLFKERQ [Q10W] | -0.817 ± 0.1
RPRTRITDDFLKILRAYFDINNSPSEEQIQEMAEKSGLSQKVIKHWFRNTLFKERQ [Q10F] | -0.616 ± 0.19
RPRTRITDDSLKILRAYFDINNSPSEEQIQEMAEKSGLSQKVIKHWFRNTLFKERQ [Q10S] | -0.172 ± 0.076
RPRTRITDDRLKILRAYFDINNSPSEEQIQEMAEKSGLSQKVIKHWFRNTLFKERQ [Q10R] | -0.526 ± 0.078

Source: the Human Domainome abundance scans (Beltran et al. 2025)
